Measurements taken from the nanobody polyreactivity screen of Harvey et al. (2022).

experiment: yeast display, Sf9 membrane polyspecificity reagent, FACS + sequencing; frameworks hold sequencing errors
How it was run: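 Using colony PCR, genes from sorted yeast display clones were amplified, then sequenced on MiSeq at 2 × 250 and filtered by CDR length. The clones had been stained with 10% biotinylated, detergent-solubilized Sf9 membrane reagent for 1 hour at 4 °C and sorted by FACS into low and high (top ~1%) gates on anti-HA and streptavidin fluorescence. Polyreactivity labels come from the gate of origin.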

Sequence | polyreactivity (PSR sort gate)
QVQLVESGGGIVQAGGSLRLSCAASGNIFSYKAMGWYRQAPRTERELVDAISRSGGSTYYADSVKGRFTISRDNAKNTVYLQMNSLKPEDTAVYYCAADWRGRKYDYWGQGTQVTVSS | high polyreactivity
QVQLVESGGGIVQAGGSLRLSCAASGRIFAYYAMGWYRQAPGKERELVAAISTSGGSTYYADSVKGRFTISRDNAKNTVYLQMNSLKPEDTAVYYCAAEFGGGRSTNFDYWGQGTQVTVSS | low polyreactivity
QVQLVESGGGIVQAGGSLRLSCAASGRIFEWYAMGWYRQAPGKERELVAAITKTAGSTYYADSVKGRFTISRDNAKNTVYLQMNSLKPEDTAVYYCNAKTYHSRRKVLRFDYWGQGTQVTVSS | low polyreactivity
QVQLVESGGGIVQAGGSLRLSCAASGRIFGIYERGWLRQAPGKEREMVAGITRGDRTYADSVKGRFTISRDNAKNTVYLQMNSLKPVDTAVYYCNADVYPYKLALPAGMGYWGQGTQVTVSS | high polyreactivity
QVQLVESGGGIVQAGGSLRLSCAASGRIFYVNAMGWYRQSPGKERELVAAISRSGSSTYYADSVKGRFTISRDNAKNTVYLQMNSLKPEDTAVYYCAARYYGRSQHHFDYWGQGTQVTVSS | high polyreactivity
QVQLVESGGGIVQAGGSLRLSCAASGRIVRNYAMGWYRQAPGKERELVAGITRGGRTNYAHSVKGRFTISRDNAKNTVYLQMNSLKPEDTAVYYCNKVSSFGYYYWGQGTQVTVSS | high polyreactivity
QVQLVESGGGIVQAGGSLRLSCAASGRTFEQNVMRWYRQAPGKERELVAAITTGGSTNYADSVKGRFTISRDNAKNTVYLQMNSLKPEDTAVYYCAADRYLGGDYDYWGQGTQVTVSS | low polyreactivity
QVQLVESGGGIVQAGGSLRLSCAASGRTFPGYAMGWSRQAPGKERELVATITFSDGSTYYADSVKGRFTISRDNAKNTVYLQMNSLKPEDTAVYYCNARRSYFLRYGVNYWGQGTQVTVSS | low polyreactivity
QVQLVESGGGIVQAGGSLRLSCAASGRTFPRYAMGWYRQAPGKERELVAAISVRAGITYYADSVKGRFTISRDNAKNTVYLQMNSLKPEDTAVYYCAKDHWTTSYDEGDYWGQGTQVTVSS | low polyreactivity
QVQLVESGGGIVQAGGSLRLSCAASGRTFQANAMGWYRQAPGKERELVAVISSRGTRTYYADSVKGRFTISRDNAKNTVYLQMNSLKPEDTAVYYCAARVPSVGNQSGYDYWGQGTQVTVSS | high polyreactivity
QVQLVESGGGIVQAGGSLRLSCAASGRTFVLNALGWYRQAPGKERELVAAITLGGGSTYADSVKGRFTISRDNAQNTVYLQMNSLKPEDTAVYYCAADFHYPDFEYWGQGTQVTVSS | low polyreactivity
QVQLVESGGGIVQAGGSLRLSCAASGRTFVSYAKGWYRQAPGKERELVAAISSSGGRTYYADSVKGRFTISRDNAKNTVYLQMNSLKPEDTAVYYCNAVRFISARYDYWGQGTQVTVSS | high polyreactivity
QVQLVESGGGIVQAGGSLRLSCAASGRTLDKYTMGWYRQAPGKERELVASITSGGSTNYADSVKGRFTISRDNAKNTVYLQMNSLKPEDTAVYYCNKRRRVSKLGQGYDYWGQGTQVTVSS | low polyreactivity
QVQLVESGGGIVQAGGSLRLSCAASGRTTSVYAIGWYRQAPGKERELVAAINRSDGGTYYADSVKGRFTISRDNAKNTVYLQMNRLQPEDTAVYYCNAVVLYGWYGRRYSSRLDYWGQGTQVTVSS | high polyreactivity
QVQLVESGGGIVQAGGSLRLSCAASGSIFGPYAMGWYRQAPGKERELVAAITWTGGRTYYADSVKGRFTISRDNAKNTVYLQMNSLKPEDTAVYYCAADYSPSTWYLYYTLYYYWGQGTQVTVSS | low polyreactivity
QVQLVESGGGIVQAGGSLRLSCAASGSIFHGYAMGWYRQAPGKERELVASITWNGGSTYYADSVKGRFTISRDNAKNTVYLQMNSLKPEDTAVYYCATSKWRGRGRTYDYWGQGTQVTVSS | high polyreactivity

Sequence | polyreactivity (PSR sort gate)
QVQLVESGGGIVQAGGSLRLSCAASGSIFITYAMGWYRPAPGKERELVAAIRDSGDRTYYADSVKGRFTISRDNAKNTVYLQMNSLKPEDTAVYYCAARIWTGRGRKLGYGYVYWGQGTQVTVSS | low polyreactivity
QVQLVESGGGIVQAGGSLRLSCAASGSIFLGYTMGLYRQAPGKERELVAAINSSGGSTYYADSVKGRFTISRDNAKNTVYLQMNSLKPEDTAVYYCADANSILLFDSWGQGTQVTVSS | low polyreactivity
QVQLVESGGGIVQAGGSLRLSCAASGSIYGYAMGWYRQAPGKERELVAAISGRGGRTYYADSVKGRFTISRDNAKNTVYLQMNSLKPEDTAVYYCNVQWRYPYHYTVDYWGQGTQVTVSS | high polyreactivity
QVQLVESGGGIVQAGGSLRLSCAASGSNFTAYDMGWYRPAPGKDRELVAALNVSAGTTYYADSVKGRFTISRDHAKNTVYLQMNSLKPEDTAVYYCATYRSPTPYTRENIYAYWGQGTLVTVSS | low polyreactivity
QVQLVESGGGIVQAGGSLRLSCAASGSNFYANPMGWYRQAPGKERELVAAITRSGAGTYYADSVKGRFTISRDNAKNTVYLQMNSLKPEDTAVYDCAKRTKTPTGYDWGGYDYWGQGTQVTVSS | high polyreactivity
QVQLVESGGGIVQAGGSLRLSCAASGSTFDSYAMGWYGQAPGKERELVATISWTGSSTYYADSVKGRFTISRDNAKNTVYLQMNSLKPEDTAVYYCATDQYYEYDYWGQGTQVTVSS | low polyreactivity
QVQLVESGGGIVQAGGSLRLSCAASGSTFDSYAMGWYRQAPGKERELVATISWTGSSTYYADSVKGRFTISRDNAKNTVYLQMNSLKPADTAVYYCATDQYYEYDYWGQGTQVTVSS | low polyreactivity
QVQLVESGGGIVQAGGSLRLSCAASGSTFEANAMGWYRQARGKERELVAAISSGDRTNYADSVKGRFTISRDNAKNTVYLQLNSLKPEDNAVYFCAAPTDSYYEFDYWGQGTQGTVSS | low polyreactivity
QVQLVESGGGIVQAGGSLRLSCAASGSTFGTYAMGWYRQAPGKEMELVAAISNSGGSTYYADSVKGRFTISRDNAKNTVYLLMNSLKQEDTAVYYCNTDGLVRNGPFYSWGQGTQVTVSS | low polyreactivity
QVQLVESGGGIVQAGGSLRLSCAASGSTFPHNAMGWYRQAPGKERQLVAALSVGGGSTHYADSVKGRFTISRDNAKNTVYLQMNSLKPEDTAVYYCAKDYAYQYSFVTYDYWGQGTQVTVSS | low polyreactivity
QVQLVESGGGIVQAGGSLRLSCAASGSTFTWYAMGLYRQAPGKERELVADISYGGGSTYYADSVKGRFTISRDNSKNTVYLQMNSLKPEDTAVYYCTALGAKGYVKGFDYWGQGTQVTVSS | low polyreactivity
QVQLVESGGGIVQAGGSLRLSCAASGSTLVKYAMGWYRQAPGKERELVAAISWSGGRTYYADSVKGRFTISRDNAKNTVYLQMNSLKPEDTAVYYCAARRKAVRYDYWGQGTQVTVSS | high polyreactivity
QVQLVESGGGIVQAGGSLRLSCAASGSTSGSYGMGWYRQAPGKERELVAAIRWSGGRTYYADSVKGRFTISRDKAKNTVYLQMNSLKPEDTAVYFCAKFRYTVSGYNYWGQRTQVTVSS | high polyreactivity
QVQLVESGGGIVQAGGSLRLSCAASGYIFKRYAMGWYRQAPWKERELVAAITGRGGSTYFADSVKGRFKISRDNAKNTVYLQMNSLKPEDTAVYYCAADGYVKGDYWGQGTQVTVSS | high polyreactivity
QVQLVESGGGIVQAGGSLRLSCAASGYSFFINAMGWSRQAPGKERELVAAIDLRGGSTYYADSVKGRFTISRDNAKNTVYLQMNSLKPEDTAVYYCNARARRYGGRYYYWGQGTQVTVSS | high polyreactivity
QVQLVESGGGIVQAGGSLRLSCAASGYTIDSYGMGWYRQAPGKERELVAAIDWSGGSTYYADSVKGRFTISRDNAKNTVYLQMNSLKPEDTAVYYCAARRGLRLFAYRHGYWGQGTQVTVSS | low polyreactivity
